The record followed here is patent publication US20260000781A1, “FC CONJUGATES INCLUDING AN INHIBITOR OF CD73 AND USES THEREOF” (Cidara Therapeutics, Inc., priority 2022, published 2026).

Assay [1] has as its target T1, recombinant human CD73 enzyme (human) (UniProt P21589).
T1 sequence (looked up): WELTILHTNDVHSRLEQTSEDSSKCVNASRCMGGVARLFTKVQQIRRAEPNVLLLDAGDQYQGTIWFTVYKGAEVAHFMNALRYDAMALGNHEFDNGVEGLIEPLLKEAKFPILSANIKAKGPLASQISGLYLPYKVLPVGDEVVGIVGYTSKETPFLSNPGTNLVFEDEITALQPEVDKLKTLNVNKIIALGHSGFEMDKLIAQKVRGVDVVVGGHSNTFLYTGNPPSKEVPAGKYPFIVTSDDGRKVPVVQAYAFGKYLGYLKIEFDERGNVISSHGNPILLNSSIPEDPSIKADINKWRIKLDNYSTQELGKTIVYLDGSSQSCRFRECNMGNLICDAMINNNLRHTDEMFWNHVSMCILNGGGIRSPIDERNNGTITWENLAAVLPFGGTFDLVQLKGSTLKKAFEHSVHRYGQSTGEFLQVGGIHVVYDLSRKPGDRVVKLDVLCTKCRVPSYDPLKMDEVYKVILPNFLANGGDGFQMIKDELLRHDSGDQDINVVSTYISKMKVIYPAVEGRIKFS
Put plainly: cell-based or functional assay.

Assay [2] deals with T2, human CD73 expressed on cells (human) (UniProt P21589).
T2 sequence (looked up): T1 sequence (looked up)
Put plainly: cell-based or functional assay.

Regarding Oleclumab (antibody), in assay [1], the cell-free CD73 enzyme inhibition, maximal inhibition worked out at 80%.
In turn, hIgG1 isotype control (antibody) came in with a Cell internalization EC50 (nM), Fab-ZAP saporin assay, MDA-MB-231 in assay [2] of more than 100 nM.
